Data: article PMC6161613

Legend:
Dansyl-calmodulin (rat) [1] = biological target: Dansyl-calmodulin (rat) (UniProt P0DP29); assay: other fluorescence titration; D-CaM (12.5 nM) fluorescence enhancement on adding increasing concentrations of GST-fusion protein; 3.9 μM free Ca2+; Hill fit; apparent binding affinity (EC50)
Dansyl-calmodulin (rat) [2] = biological target: Dansyl-calmodulin (rat) (UniProt P0DP29); assay: other fluorescence titration; D-CaM (12.5 nM) fluorescence enhancement on adding increasing concentrations of GST-fusion protein; absence of Ca2+ (10 mM EGTA added); Hill fit; apparent binding affinity (EC50)
[3] = biological target: GST-Kv7.2 helices A-B fusion protein (G310-L548) K526N (human); assay: pull-down; purified GST fusion proteins immobilised on GSH-Sepharose 4B beads; CaM (10 μg) added, 45 min, room temperature; 25 mM Hepes, 120 mM KCl, 5 mM NaCl, pH 7.5 with 100 μM CaCl2; anti-CaM Western blot, band intensities quantified (n = 3)

| EC50 (Dansyl-calmodulin (rat) [1]) [µM] | EC50 (Dansyl-calmodulin (rat) [2]) [µM] | percent lower CaM signal intensity than WT [3] [%] | Substance |
| --- | --- | --- | --- |
| 0.0559 | 0.0373 | – | GST-Kv7.2 helices A-B fusion protein (G310-L548) K526N (domain or fragment) |
| 0.0301 | 0.0126 | – | GST-Kv7.2 helices A-B fusion protein (G310-L548) R333Q (domain or fragment) |
| – | – | 42 | Recombinant rat brain calmodulin (from UniProt P0DP29 1-149) (natural protein) |
